Here are results for two molecules from patent US20250361296A1.

Experiment [1] concerns the target Macaca fascicularis (crab-eating macaque) SIGLEC15 on CHO-S-fasSIGLEC15 cells (Macaca fascicularis (crab-eating macaque)). The experiment in a line: flow cytometry, CHO-S cells expressing the target.
Experiment [2] has as its target T1, His-tagged monkey SIGLEC15 protein (fasSIGLEC15-His, ACROBiosystems Inc., Cat #: SG5-C52H6) (monkey).
T1 sequence: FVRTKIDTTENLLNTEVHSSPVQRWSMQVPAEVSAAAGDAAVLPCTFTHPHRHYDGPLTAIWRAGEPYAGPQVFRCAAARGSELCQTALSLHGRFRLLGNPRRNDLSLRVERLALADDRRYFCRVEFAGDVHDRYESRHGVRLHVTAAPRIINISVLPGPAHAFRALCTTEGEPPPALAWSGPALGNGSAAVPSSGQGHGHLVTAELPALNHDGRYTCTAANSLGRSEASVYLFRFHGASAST
The experiment in a line: SPR (Biacore 8K), antibody captured on Protein A chip, His-tagged SIGLEC15 as analyte.

B1: anti-SIGLEC15 antibody 10A7 (antibody, human IgG1, V domains shown)
VH: EVQLVQSGGGLVQPGGSLRLSCAASGFTFSNYEMNWVRQAPGKGLEWISYISNSGSTIYYADSVKGRFTISRDDAKNSLYLQMNSLRAEDTAVYYCAREDYDSSGYYWFDPWGQGTPVTVSS
VL: DIQLTQSPSSVSASVGDRVTITCRASQGISSWLAWYQQKPGKAPKLLIYAASSLQSGVPSRFSGSGSGTDFTLTINSLQPEDFATYYCQQTNSFPLTFGGGTKVEIK
In turn, B1 registered a Percentage of Positive Cells in experiment [1] of 49.3%.

B2: anti-SIGLEC15 antibody 10C9 (antibody, human IgG1, V domains shown)
VH: QVQLVQSGAEVKKPGATVKVSCKASGYTFTNYGFSWVRQAPGQGLEWMGWINTYNDNTNYAQKFQGRVTMTTDTSTSTAYMELRSLRSDDTAVYYCARDGLWFGELPHYFDYWGQGTLVTVSS
VL: DIQLTQSPLSSPVTLGQPASISCRSSQSLVNSDGETFLSWLQQRPGQPPRLLIYKISNRFSGVPDRFSGSGAGTDFTLKISRVEAEDVGVYYCMQATQFPHTFGQGTKLEIK
As for B2, in experiment [1], the Percentage of Positive Cells was found to be 47.5%. For the same molecule, in experiment [2], the Kd is 0.0206 nM, the off-rate (koff) was 5.01e-05 s⁻¹ and the kon came to 2.43e+06 M⁻¹ s⁻¹.
